In patent US20230009582A1 (MEMO THERAPEUTICS, published 2023):

T1: Siglec-5-Fc (R&D systems) (UniProt O15389 17-434, limits assumed)
T1 construct: Bought reagent; not shown: Fc part of the bought fusion; not described
T1 sequence (looked up): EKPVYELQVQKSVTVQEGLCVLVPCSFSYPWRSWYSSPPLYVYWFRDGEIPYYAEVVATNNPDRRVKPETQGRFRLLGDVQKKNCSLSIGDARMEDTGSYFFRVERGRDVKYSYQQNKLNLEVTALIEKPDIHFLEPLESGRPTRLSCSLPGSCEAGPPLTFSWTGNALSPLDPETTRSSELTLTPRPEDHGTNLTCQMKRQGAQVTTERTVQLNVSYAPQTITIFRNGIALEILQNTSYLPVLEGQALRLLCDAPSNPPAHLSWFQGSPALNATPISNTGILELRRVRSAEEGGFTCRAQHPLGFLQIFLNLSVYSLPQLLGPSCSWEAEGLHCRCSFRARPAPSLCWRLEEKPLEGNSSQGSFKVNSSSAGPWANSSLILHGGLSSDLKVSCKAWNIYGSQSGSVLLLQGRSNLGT

T2: Siglec-15-Fc (R&D systems) (UniProt Q6ZMC9 20-263, limits assumed)
T2 construct: Bought reagent; not shown: Fc part of the bought fusion; not described
T2 sequence (looked up): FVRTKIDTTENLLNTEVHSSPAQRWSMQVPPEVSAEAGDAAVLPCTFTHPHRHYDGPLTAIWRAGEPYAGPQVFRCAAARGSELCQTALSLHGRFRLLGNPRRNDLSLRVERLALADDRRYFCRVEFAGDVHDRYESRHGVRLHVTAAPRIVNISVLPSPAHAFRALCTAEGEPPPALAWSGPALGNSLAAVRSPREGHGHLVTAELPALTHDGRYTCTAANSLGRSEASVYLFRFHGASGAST

B1: humanized anti-Siglec-9 antibody 68D4 (68D4-hum) (antibody, human IgG1, kappa, V domains shown)
VH: EVQLVESGGGLVQPGGSLRISCAASGIDLSSYDMTWVRQAPGKGLEWVSIIYTGGLTYYADSVKGRFTISRDNSKNTVYLQMNSLRAEDTAVYYCAREVGDNNNFWGQGTLVTVSS
VL: DIVMTQSPSSVSASVGDRVTITCRASESVSSGLAWYQQKPGKAPKLLVYDDTDLASGVPSRFSGSGSGTEFTLTISSLQPDDFATFYCQYTDYGRTYVGTFGGGTKVEIKR
notes: Human IgG1/kappa, expressed in HEK293F cells; also called humanized 68D4
B2: comparative monoclonal antibody 5C6 (WO 2017/075432), mouse-rabbit chimera (antibody, V domains shown)
VH: EVQLQQSGPELVKPGASVRISCKASGYTFTDYNIHWVKQSQGKSLEWIGYIYPYNGDTGYNQKFQNKATLTVDNSSSTAYMELRSLTSEDSAVYYCANGNYLYYYAMDYWGQGTSVTVSS
VL: DVVMTQTPLSLPVSLGDQVSISCSSSQSLVHSNGNTYLHWYLQKSGQSPKLLIYKVSNRFSGVPDRFRGSGSGTDFTLKISRVEAEDLGVYFCSQNTHVPLTFGAGTKLELKG
B3: monoclonal antibody 68D4 (rabbit) (antibody, V domains shown)
VH: QSLEESGGRLVKPDETLTITCTVSGIDLSSYDMTWVRQAPGKGLEWIGIIYTGGLTYYASWAKGRFTISKTSTTVDLKITSPTTEDTATYFCAREVGDNNNFWGPGTLVTVSS
VL: DVVMTQTPASVSEPVGGTVTIKCQASESVDSGLAWYHQKPGQPPKLLIYDDTDLASGVPSRFKGSRSGTAHTLTISDLECADAATYYCQYTDYGRTYVGTFGGGTEVVIKG
notes: also called rb 68D4; rabbit 68D4

Experiments:
[1] = molecular target: extra-cellular domain of Siglec-9 fused to a C-terminal his-tag (Homo sapiens (Human), UniProt Q9Y336 18-348); test: ELISA, coated his-tagged Siglec-9 extracellular domain, anti-human Fc gamma detection, Abs 450 nm
Sequence of extra-cellular domain of Siglec-9 fused to a C-terminal his-tag (Q9Y336 18-348 limits assumed): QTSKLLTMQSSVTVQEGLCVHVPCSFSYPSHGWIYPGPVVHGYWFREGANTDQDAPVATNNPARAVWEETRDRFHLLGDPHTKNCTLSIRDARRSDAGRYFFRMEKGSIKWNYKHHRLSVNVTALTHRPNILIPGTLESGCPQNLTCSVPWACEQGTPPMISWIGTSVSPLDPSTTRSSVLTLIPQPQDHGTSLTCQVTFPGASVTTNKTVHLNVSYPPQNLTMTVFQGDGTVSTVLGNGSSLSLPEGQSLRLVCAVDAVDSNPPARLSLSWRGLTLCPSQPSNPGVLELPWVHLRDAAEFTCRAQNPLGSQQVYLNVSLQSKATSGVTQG
Description: (SEQ ID NO: 44) […] […] […] […] […] […] […]. For detection of bound IgG either polyclonal anti- rabbit IgG antibody (68D4; Biolegend, #406401), or anti-human Fey fragment (humanized 68D4 and mAbA; Jackson Immuno Research laboratories, #109-035-098) were used.

[2] = molecular target: T1, Siglec-5-Fc (R&D systems); test: ELISA, coated Siglec-5-Fc 1 µg/ml, single antibody concentration, Abs 450 nm, n=3
Description: (§1) Specificity towards Siglec-5, Siglec-7, Siglec-8, Siglec-15 and Siglec-9 was assayed in enzyme-linked immunosorbent assay (ELISA) using 96 well half-area ELISA plates (Corning). Siglec-5-Fc (R&D systems), Siglec-7-Fc (in-house production, Siglec-7-Fc protein used had the following amino acid sequence:
(§2) (SEQ ID NO: 59)) […] […] […] […] […] […] […] […] […] […] […] […], Siglec-8-Fc (R&D systems), Siglec-15- Fc (R&D systems) and Siglec-9-Fc (in-house production, SEQ ID NO: 11) were coated at 1 μg/ml in 50 mM carbonate-bicarbonate buffer pH 9.6 for 15-20 hours at 4° C.
(§3) Antigens were washed away (Tecan Hydrospeed) and plates were blocked with 5% skimmed milk in phosphate-buffered saline (PBS). After washing the plates, antibodies were added at 5 μg/ml (33 nM) in 0.5% milk PBS in triplicates. Plates with antibodies were incubated for 1 hour at room temperature. Plates were washed and bound antibodies were detected by horseradish peroxidase (HRP)-labeled polyclonal anti-rabbit IgG antibody (Biolegend) or anti-human Fab fragment for mAbA (Sigma Aldrich). 3,3′,5,5′-Tetramethylbenzidine (TMB; Sigma Aldrich) development was stopped by addition of sulfuric acid and absorbance was detected at 450 nm (Tecan, CM […] MONO 200).

[3] = molecular target: T3, Siglec-7-Fc (in-house production); test: ELISA, coated Siglec-7-Fc 1 µg/ml, single antibody concentration, Abs 450 nm, n=3
T3 construct: The entry holds the Siglec-7 part and the Fc together; also called Siglec-7-Fc protein
T3 sequence (chain, as listed by the source limits assumed): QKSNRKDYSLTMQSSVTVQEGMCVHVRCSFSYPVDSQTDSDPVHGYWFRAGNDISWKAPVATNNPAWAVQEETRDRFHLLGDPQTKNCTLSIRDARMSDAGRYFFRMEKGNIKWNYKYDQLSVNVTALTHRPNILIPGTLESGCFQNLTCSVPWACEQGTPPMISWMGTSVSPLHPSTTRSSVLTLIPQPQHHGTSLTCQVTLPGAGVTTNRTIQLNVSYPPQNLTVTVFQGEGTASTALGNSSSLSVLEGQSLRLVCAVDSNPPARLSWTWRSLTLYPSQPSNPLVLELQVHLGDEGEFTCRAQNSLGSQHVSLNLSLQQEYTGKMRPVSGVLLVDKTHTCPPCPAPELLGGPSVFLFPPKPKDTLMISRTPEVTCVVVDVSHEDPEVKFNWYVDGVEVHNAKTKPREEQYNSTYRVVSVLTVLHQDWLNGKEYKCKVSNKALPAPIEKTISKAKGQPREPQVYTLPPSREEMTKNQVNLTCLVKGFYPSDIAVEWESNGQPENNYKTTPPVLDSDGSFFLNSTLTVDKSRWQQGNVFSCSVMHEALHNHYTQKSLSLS
Description: as §1, §2, §3

[4] = molecular target: T4, Siglec-8-Fc (R&D systems) (UniProt Q9NYZ4 17-363, limits assumed); test: ELISA, coated Siglec-8-Fc 1 µg/ml, single antibody concentration, Abs 450 nm, n=3
T4 construct: Bought reagent; not shown: Fc part of the bought fusion; not described
T4 sequence (Q9NYZ4 17-363 limits assumed): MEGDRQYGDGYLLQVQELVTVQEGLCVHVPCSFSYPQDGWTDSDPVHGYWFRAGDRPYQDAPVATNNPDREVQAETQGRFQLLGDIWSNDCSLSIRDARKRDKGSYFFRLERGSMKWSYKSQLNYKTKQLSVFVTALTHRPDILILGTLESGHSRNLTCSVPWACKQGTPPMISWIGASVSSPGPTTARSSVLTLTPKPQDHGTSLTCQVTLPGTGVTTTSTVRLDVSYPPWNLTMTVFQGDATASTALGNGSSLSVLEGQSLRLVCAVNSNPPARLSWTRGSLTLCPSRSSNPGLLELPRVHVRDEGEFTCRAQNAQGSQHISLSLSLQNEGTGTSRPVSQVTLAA
Description: as §1, §2, §3

[5] = molecular target: T2, Siglec-15-Fc (R&D systems); test: ELISA, coated Siglec-15-Fc 1 µg/ml, single antibody concentration, Abs 450 nm, n=3
Description: as §1, §2, §3

[6] = molecular target: T5, Siglec-9 protein (construct not stated; antigen of Examples 3 and 4) (human, UniProt Q9Y336 18-348, limits assumed); test: ELISA, coated Siglec-9 1 µg/ml, antibody titrated, Abs 450 nm, three-parameter fit, n=3
T5 sequence (Q9Y336 18-348 limits assumed): as the sequence (Q9Y336 18-348 limits assumed) above
Description: FIG. 2: Binding curves of monoclonal antibodies (68D4 and 224B1; comparative monoclonal antibodies mAbA and 5C6 & negative control 53C3) towards Siglec-9 as analysed by ELISA. Binding of the monoclonal antibody to Siglec-9, as determined by measurement of the accumulated coloured product at 450 nm after stopping the reaction, is plotted against the concentration of the monoclonal antibody under evaluation.
Antibody binding affinity towards Siglec-9 was measured by a dilution series of the analysed antibodies on a fixed concentration of Siglec-9 protein in ELISA. To this end, Siglec-9 was coated at 1 μg/ml in 50 mM carbonate-bicarbonate buffer pH 9.6 for 15-20 hours at 4° C. Antigen solution was washed away (Tecan Hydrospeed) and plates were blocked with 5% skimmed milk in phosphate-buffered saline (PBS) for 1 hour at room temperature. Plates were washed and antibodies were added at concentrations of 0-420 nM. After incubation at room temperature for 1 hour plates were washed once more. Bound antibodies were detected by addition of horseradish peroxidase (HRP)-coupled secondary antibodies. Rabbit antibodies were detected by polyclonal anti-rabbit IgG antibody (Biolegend), mAbA by anti-human Fab fragment (Sigma Aldrich). After a last washing step, plates were developed by the addition of 3,3′,5,5′-Tetramethylbenzidine (TMB; Sigma Aldrich). Reaction was stopped by addition of sulfuric acid. Absorbance was detected at 450 nm (Tecan, CM […] MONO 200). Data were fitted and EC50 values were determined by three-parameter analysis in GraphPad Prism (GraphPad Software)

[7] = molecular target: T6, Siglec-9 expressed on cells (human, UniProt Q9Y336 18-463); test: flow cytometry on human CD14+ monocytes (PBMC), mean RFU of the secondary antibody, three-parameter fit
T6 construct: also called monocyte-expressed Siglec-9
T6 sequence (Q9Y336 18-463 limits assumed): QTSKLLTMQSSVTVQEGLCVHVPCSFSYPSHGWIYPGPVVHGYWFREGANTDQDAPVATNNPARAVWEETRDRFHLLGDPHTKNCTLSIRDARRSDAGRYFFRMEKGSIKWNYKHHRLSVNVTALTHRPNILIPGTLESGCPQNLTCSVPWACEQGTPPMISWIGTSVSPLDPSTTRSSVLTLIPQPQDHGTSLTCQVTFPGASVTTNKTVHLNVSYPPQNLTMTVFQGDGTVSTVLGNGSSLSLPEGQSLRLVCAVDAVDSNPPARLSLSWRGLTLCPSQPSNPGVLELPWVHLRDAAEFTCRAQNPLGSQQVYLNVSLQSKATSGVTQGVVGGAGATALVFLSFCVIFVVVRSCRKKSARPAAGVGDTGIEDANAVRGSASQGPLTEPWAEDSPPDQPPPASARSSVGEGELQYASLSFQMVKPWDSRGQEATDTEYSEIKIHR
Description: (§4) Human ex vivo PBMC were stained with fluorescence-labeled (allophycocyanin, APC) antibody to the monocyte marker CD14 (Biolegend) in assay buffer (0.5% (v/v) heat-inactivated fetal bovine serum (Gibco), 2 mM EDTA in phosphate-buffered saline). Subsequently, cells were incubated with antibodies under evaluation at various concentrations (67 nM-0.38 pM). After a washing step cells were incubated with fluorescence-labeled (Brilliant Violet 421™) secondary antibody against human IgG (mAbA) or rabbit IgG (all other monoclonal antibodies under evaluation; both secondary antibodies from Biolegend).
(§5) Binding of Siglec-9-specific antibodies to monocytes (CD14-positive life cells) was analysed with a CytoFLEX flow cytometer (Beckham Coulter's). The mean fluorescence intensity of the secondary antibody staining in the CD14-positive population at each dilution was determined using Flow Jo software (BD). Datapoints generated by this analysis were fitted and EC50 values were determined by three-parameter analysis in GraphPad Prism (GraphPad Software)

[8] = molecular target: T7, Siglec-9-Fc (in-house production); test: blocking assay: Calcein-AM labelled sialic acid-displaying A549 tumour cells binding to plate-captured Siglec-9-Fc, antibody titrated, n=3
T7 construct: The entry holds the Siglec-9 part and the Fc together; also called Siglec-9-Fc protein
T7 sequence (chain, as listed by the source limits assumed): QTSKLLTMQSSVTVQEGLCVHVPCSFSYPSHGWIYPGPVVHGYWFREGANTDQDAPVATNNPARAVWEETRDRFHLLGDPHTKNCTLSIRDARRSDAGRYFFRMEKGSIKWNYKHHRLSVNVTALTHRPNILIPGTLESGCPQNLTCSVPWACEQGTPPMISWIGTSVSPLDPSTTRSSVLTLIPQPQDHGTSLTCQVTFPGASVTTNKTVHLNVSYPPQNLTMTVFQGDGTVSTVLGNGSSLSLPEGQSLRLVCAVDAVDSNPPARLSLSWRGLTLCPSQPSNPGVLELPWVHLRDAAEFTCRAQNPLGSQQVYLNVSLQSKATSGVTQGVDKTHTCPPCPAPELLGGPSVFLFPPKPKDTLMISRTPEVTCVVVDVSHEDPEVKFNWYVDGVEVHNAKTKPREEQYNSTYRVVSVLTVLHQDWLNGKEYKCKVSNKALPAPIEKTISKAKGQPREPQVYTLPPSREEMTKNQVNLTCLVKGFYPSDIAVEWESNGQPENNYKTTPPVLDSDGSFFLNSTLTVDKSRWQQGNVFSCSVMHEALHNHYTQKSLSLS
Description: FIG. 4: Titration of monoclonal antibodies (68D4 and 224B1; comparative monoclonal antibodies mAbA and 5C6 & negative control 53C3) to determine blocking the binding of sialic acid-displaying A549 tumour cells to Siglec-9. Tumour cells were fluorescently-loaded with Calcein-AM in advance to the binding experiment and binding was determined by the released fluorescence upon cell lysis. Fluorescence released in the absence of antibody was set to 100% binding. Data was fitted by three-parameter analysis in GraphPad Prism (GraphPad Software); n=3.
To analyse if anti-Siglec-9 antibodies recognize the ligand-binding domain and block the binding of Siglec-9 to its ligands, sialic acids, we performed a cell-based assay where the binding of sialic-acid expressing A549 tumour cells to Siglec-9-Fc is evaluated in ELISA. ELISA-plates were coated with 3 μg/ml Protein-A (Thermo Fisher Scientific) overnight at 4° C. Plates were blocked with PBS, 1% BSA for 1 h, and incubated with 5 μg/ml Siglec-9-Fc for 1 h at RT. Anti-Siglec-9 antibodies at different concentrations (starting at 8 μg/ml or 53 nM); were mixed 1:1 with Calcein-AM (Thermo Fisher Scientific) labeled A549 tumour cells. The mixture was added to the ELISA plate and incubated for 1 h at 4° C. After washing of the plate, cells that were bound to the plate were lysed with PBS, 1% Triton-X 100 and released fluorescence was measured at an excitation of 485 nm and emission of 535 nm with a Synergy H1 (BioTek). Data were fitted by three-parameter analysis in GraphPad Prism (GraphPad Software).

[9] = molecular target: T6, Siglec-9 expressed on cells; test: flow cytometry on human CD14+ monocytes in PBMC
Description: as §4, §5

[10] = molecular target: T5, Siglec-9 protein (construct not stated; …); test: SPR (Carterra LSA), antibody coupled to HC2000M chip, antigen in solution
Description: (§6) KD determination was performed by SPR by individually coating the antibodies to HC2000M chips via sulpho-NHS/EDC coupling chemistry. Chips were afterwards blocked with ethanolamine. Antigen was applied in one of the three different concentrations (20 nM, 100 nM and 500 nM) with a contact time of 240 s, followed by a dissociation phase of 120 s. After each antigen incubation, the bound antigen was removed from the antibodies with 10 mM glycine at pH 2.0. All kinetic parameters (kₒₙ, koff and KD) were determined using a kinetic fitting program (LSA Kinetics, Carterra).

[11] = molecular target: T5, Siglec-9 protein (construct not stated; …); test: SPR (Carterra LSA), antibody coupled to HC2000M chip, antigen at 20, 100 and 500 nM
Description: as §6

[12] = molecular target: T7, Siglec-9-Fc (in-house production); test: ELISA, coated Siglec-9-Fc 1 µg/ml, antibody at 5 µg/ml (33 nM), Abs 450 nm, n=3
Description: as §1, §2, §3

Binder | EC50 (read off the curve) [1] [nM] | binding result [2] | binding result [3] | binding result [4] | binding result [5] | EC50 [6] [nM] | EC50 [7] [nM] | binding result [8] | fold stronger avidity than mAbA [9] [fold] | fold stronger binding than 5C6 [9] [fold] | fold better dissociation constant than mAbA [10] [fold] | Kd [11] [nM] | koff [11] [s⁻¹] | kon [11] [M⁻¹ s⁻¹] | binding result [12]
B1 | ~0.06 |  |  |  |  |  |  |  |  |  |  |  |  |  | 
B2 |  | no binding (tested: 5 µg/ml) | no binding (tested: 5 µg/ml) | no binding (tested: 5 µg/ml) | no binding (tested: 5 µg/ml) | 0.34 | 4.18 | binds |  |  |  |  |  |  | 
B3 |  | no binding (tested: 5 µg/ml) | no binding (tested: 5 µg/ml) | no binding (tested: 5 µg/ml) | no binding (tested: 5 µg/ml) | 0.05 | 0.19 |  | ~3 | ~22 | ~16.7 | 0.15 | 9.6e-05 | 640000 | binds
